The record followed here is paper PMC10294844, “Functional Diversity of Homologous Oxidoreductases—Tuning of Substrate Specificity by a FAD-Stacking Residue for Iron Acquisition and Flavodoxin Reduction” (Antioxidants, 2023).

The data set concerns the molecule itself. The data set can be described thus: crystal structure.

B1: Bacillus cereus heme-degrading monooxygenase IsdG (enzyme)
chain: MIIVTNTAKITKGNGHKLIERFNKVGKVETMPGFLGLEVLLTQNTVDYDEVTISTRWNAKEDFQGWTKSAAFKDAHSHQGGMPEYILDNKIAYYDVKVVRMPMAAAQ
notes: also called Bc IsdG; IsdGapo
B1: the binding result was “binds”.
